Data taken from patent US20100028415A1.

Assays:
[1] = target: SS-A/Ro; assay: Luminex AtheNA Multi-Lyte ANA Test, 0.15 µg mab per test
[2] = target: centromere B (UniProt P07199); assay: as above
[3] = target: histones; assay: as above
[4] = target: Mab 4E10; assay: competition ELISA: gp140 (19.25-1230 nM) mixed with 10 µg/ml 4E10 MAb, added to wells with 1.35 µg cardiolipin

Sequence of UniProt P07199 (P07199 2-599 limits assumed): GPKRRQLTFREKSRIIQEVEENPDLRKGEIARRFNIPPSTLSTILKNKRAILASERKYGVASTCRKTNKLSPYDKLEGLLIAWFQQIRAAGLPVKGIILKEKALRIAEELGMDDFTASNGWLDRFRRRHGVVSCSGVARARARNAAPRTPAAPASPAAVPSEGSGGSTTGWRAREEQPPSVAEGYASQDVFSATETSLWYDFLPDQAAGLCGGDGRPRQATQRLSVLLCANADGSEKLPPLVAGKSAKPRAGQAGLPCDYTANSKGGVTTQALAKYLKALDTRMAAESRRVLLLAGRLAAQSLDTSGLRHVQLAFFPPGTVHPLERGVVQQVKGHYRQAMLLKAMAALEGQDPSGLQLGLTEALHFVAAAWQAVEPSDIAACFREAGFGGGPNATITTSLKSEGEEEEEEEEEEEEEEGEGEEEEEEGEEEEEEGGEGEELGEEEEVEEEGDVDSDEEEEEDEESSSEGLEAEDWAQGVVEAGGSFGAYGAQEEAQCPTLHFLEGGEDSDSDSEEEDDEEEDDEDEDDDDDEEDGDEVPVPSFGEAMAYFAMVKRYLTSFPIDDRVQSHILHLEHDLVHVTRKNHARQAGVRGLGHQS

Mab 4E10 (antibody)
Ro (SSA) antibody value (relative units based on a standard curve) (relative units) [1]: 221

A32 (antibody)
centromere B antibody value (relative units based on a standard curve) (relative units) [2]: 1130

Mab IgG1b12 (antibody)
centromere B antibody value (relative units based on a standard curve) (relative units) [2]: 479 | histone antibody value (relative units based on a standard curve) (relative units) [3]: 185

soluble HIV-1 Env gp140 oligomers (CON-S)
IC50 [4]: 0.145 µM

Mab 2F5 (antibody)
centromere B antibody value (relative units based on a standard curve) (relative units) [2]: 1780 | histone antibody value (relative units based on a standard curve) (relative units) [3]: 1010 | Ro (SSA) antibody value (relative units based on a standard curve) (relative units) [1]: 290
